Like-named read-outs stand apart in the source and are kept apart here.
Columns and labels:
monomeric cyno Tim3-ECD = target: T1, monomeric cyno Tim3-ECD (cynomolgus, UniProt A0A2K5U3G7 22-195); assay: SPR BIAcore B4000, Ab captured on anti-mouse IgG, 25 C
T1 construct: extracellular domain; also called cyTim3; cynomolgus Tim3
T1 sequence: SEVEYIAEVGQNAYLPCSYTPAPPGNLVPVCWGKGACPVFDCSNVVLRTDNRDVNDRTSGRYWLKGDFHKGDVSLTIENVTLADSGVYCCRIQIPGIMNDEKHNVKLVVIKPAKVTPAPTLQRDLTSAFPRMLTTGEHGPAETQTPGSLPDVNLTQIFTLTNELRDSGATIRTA

[1] = target: T2, Tim3-CLIP (on transiently transfected HEK293 cells) (human, CLIP-tag labelled with Clip-Red); assay: cell-based TR-FRET on SNAP-tagged PD1 / CLIP-tagged TIM3 HEK293 cells, 1 h at 4 C; half-maximal FRET, i.e. simultaneous binding of both receptors, not of one arm alone
T2 construct: The plasmid encodes residues 1-202 including the signal peptide; also called CLIP-tagged TIM3

[2] = target: T3, PD1-SNAP (on transiently transfected HEK293 cells) (human, SNAP-tag labelled with SNAP-Lumi4-Tb); assay: as above
T3 construct: also called SNAP-tagged PD1

monomeric human Tim3-ECD = target: T4, monomeric human Tim3-ECD (human, UniProt Q8TDQ0 22-202); assay: SPR Biacore T200, Ab captured on anti-human Fab IgG, hu Tim3-ECD in solution, 25 C
T4 construct: SPR analyte; also called huTim3; hu Tim3-ECD

[3] = target: T5, biotinylated TIM3-ECD-AviHis (human, UniProt Q8TDQ0 22-202, biotinylated, site not stated); assay: ELISA on coated biotinylated TIM3-ECD-AviHis
T5 construct: also called huTIM3; Hu TIM3

[4] = target: T6, biotinylated PD1-ECD-AviHis (human, UniProt Q15116 25-170, biotinylated, site not stated); assay: ELISA on coated biotinylated PD1-ECD-AviHis
T6 construct: also called huPD1; hu PD1

[5] = target: T7, full-length human PD1 on cells (CHO-K1 stably transfected with plasmid 15311_hPD1-fl_pUC_Neo) (human, UniProt Q15116 25-288); assay: cell-based or functional assay
human PD1-ECD [6] = target: T8, human PD1-ECD (human, UniProt Q15116 25-170); assay: SPR Biacore T200, Ab captured on anti-human Fc IgG, hu PD1-ECD in solution, 25 C
T8 construct: SPR analyte; also called hu PD1-ECD

[7] = target: T7, full-length human PD1 on cells (CHO-K1 …); assay: cell-based or functional assay; remark: listed apart in the source
[8] = target: T2, Tim3-CLIP (on transiently transfected …); assay: cell-based TR-FRET (Tag-lite) on HEK293 cells co-transfected with PD1-SNAP (Lumi4-Tb) and Tim3-CLIP (Clip-Red), 1 h at 4 C; signal needs both receptors bound at once by one antibody; mean +/- SD, n=3
[9] = target: T3, PD1-SNAP (on transiently transfected …); assay: as above
[10] = target: T7, full-length human PD1 on cells (CHO-K1 …); assay: cell-based or functional assay; remark: listed apart in the source
[11] = target: T9, full-length human Tim3 on cells (CHO-K1 stably transfected with plasmid 15312_hTIM3-fl_pUC_Neo) (human, UniProt Q8TDQ0 22-301); assay: cell-based or functional assay
[12] = target: T9, full-length human Tim3 on cells (CHO-K1 …); assay: cell-based or functional assay; remark: listed apart in the source
[13] = target: T6, biotinylated PD1-ECD-AviHis; assay: ligand replacing ELISA on coated PD1-ECD-AviHis; row head 'IC50 PD-L1, 2', competitor not told apart; blocking of ligand binding; head says 'PD-L1, 2', competitor not told apart
[14] = target: T6, biotinylated PD1-ECD-AviHis; assay: ELISA on coated biotinylated PD1-ECD-AviHis; remark: listed apart in the source
human PD1-ECD [15] = target: T8, human PD1-ECD; assay: SPR; row head 'Affinity KD 37°C [nM] *)', second of two values (equals the 25 C value of Table 9); second of the two values in the cell; footnote *) not given, so the difference from the first value is not told
[16] = target: T7, full-length human PD1 on cells (CHO-K1 …); assay: cell-based or functional assay; remark: listed apart in the source
human PD1-ECD [17] = target: T8, human PD1-ECD; assay: SPR Biacore T200, Ab captured on anti-human IgG, 25 C
[18] = target: T2, Tim3-CLIP (on transiently transfected …); assay: cell-based TR-FRET on SNAP-tagged PD1 / CLIP-tagged TIM3 HEK293 cells, 1 h at 4 C; signal needs both receptors bound at once
human PD1-ECD [19] = target: T8, human PD1-ECD; assay: SPR; row head 'Affinity KD 37°C [nM] *)', first of two values, footnote not explained; first of the two values in the cell; row head KD 37°C, footnote *) not given

B1: Tim3_0022 (antibody, V domains shown)
VH: EVQLQESGPSLVKPSQTLSLTCSVTGDSIASAYWNWIRKFPGNKLEYMGYINYSGSTYYNPSLKSRISITRDTSQNQYYLQLNSVTTEDTATYYCVTGDYFDYWGRGTTLTVSS
VL: DIQMTQSPSSLSAYLGGKVTITCKARQDVRKNIGWYQHKPGKGPRLLIWYTSTLQSGIPSRFSGSGSGRDYSFNINNLEPEDIATYYCLQYDNLPFTFGTGTKLEIR
Binder B1 has a Kd (monomeric cyno Tim3-ECD) of 28.4 nM.

B2: 1+1 PD1TIM3_0168 (based on chimeric PD1-0103 / Tim3-0018) (bispecific antibody, human IgG1, kappa, L234A L235A)
heavy 1: not shown
heavy 2: QVTLKESGPGILQPSQTLSLTCSFSGFSLSTSGMSVGWIRQPSGKGLEWLAHIWLNDDVFFNPALKRRLTISKDTSNNQVFLQIASVVTADTATYYCVRANGYLYALDYWGQGISVTVSSASTKGPSVFPLAPSSKSTSGGTAALGCLVEDYFPEPVTVSWNSGALTSGVHTFPAVLQSSGLYSLSSVVTVPSSSLGTQTYICNVNHKPSNTKVDEKVEPKSCDKTHTCPPCPAPEAAGGPSVFLFPPKPKDTLMISRTPEVTCVVVDVSHEDPEVKFNWYVDGVEVHNAKTKPREEQYNSTYRVVSVLTVLHQDWLNGKEYKCKVSNKALGAPIEKTISKAKGQPREPQVCTLPPSRDELTKNQVSLSCAVKGFYPSDIAVEWESNGQPENNYKTTPPVLDSDGSFFLVSKLTVDKSRWQQGNVFSCSVMHEALHNRFTQKSLSLSPGK
light 1: EVILVESGGGLVKPGGSLKLSCAASGFSFSSYTMSWVRQTPEKRLDWVATISGGGRDIYYPDSVKGRFTISRDNAKNTLYLEMSSLMSEDTALYYCVLLTGRVYFALDSWGQGTSVTVSSASVAAPSVFIFPPSDEQLKSGTASVVCLLNNFYPREAKVQWKVDNALQSGNSQESVTEQDSKDSTYSLSSTLTLSKADYEKHKVYACEVTHQGLSSPVTKSFNRGEC
light 2: QIVLTQSPAIMSASPGQKVTITCSASSSVNYTQWYQQKLGSSPKLWIYDAFKLAPGVPARFSGSGTGTSYSLTISSMEAEDAASYFCHQWSSYPWTFGGGTKLEIKRTVAAPSVFIFPPSDRKLKSGTASVVCLLNNFYPREAKVQWKVDNALQSGNSQESVTEQDSKDSTYSLSSTLTLSKADYEKHKVYACEVTHQGLSSPVTKSFNRGEC
notes: 1+1 CrossMAb Vh-VL: HC1/LC1 form the crossed PD1 arm, HC2/LC2 the TIM3 arm; knobs into holes
B2 was tested, and the “EC50 (read off the curve)” value [1] was roughly 0.7 nM, the “EC50 (read off the curve)” value [2] was roughly 0.7 nM and the Kd (monomeric human Tim3-ECD) was 10.3 nM. For the same binder, the EC50 [3] was 0.41 nM, the EC50 [4] was 0.11 nM and the “EC50 of IFN-gamma secretion in MLR, donors D2 + D6” value (“EC50 … donors D2 + D6” below) [5] was 4.3 nM. It also gave a Kd (human PD1-ECD [6]) of 1.2 nM.

B3: 1+1 PD1TIM3_0389 (based on chimeric PD1-0103 / Tim3-0028) (bispecific antibody, human IgG1, kappa, L234A L235A)
heavy 1: not shown
heavy 2: EVQLQQSVAELVRPGASVKLSCTASGFNIKTTYMHWVKQRPEQGLEWIGRIDPADDNTKYAPKFQGKATITADTSSNTAYLQLSSLTSEDAAIYYCVRDFGYVAWFAYWGQGTLVTFSAASTKGPSVFPLAPSSKSTSGGTAALGCLVEDYFPEPVTVSWNSGALTSGVHTFPAVLQSSGLYSLSSVVTVPSSSLGTQTYICNVNHKPSNTKVDEKVEPKSCDKTHTCPPCPAPEAAGGPSVFLFPPKPKDTLMISRTPEVTCVVVDVSHEDPEVKFNWYVDGVEVHNAKTKPREEQYNSTYRVVSVLTVLHQDWLNGKEYKCKVSNKALGAPIEKTISKAKGQPREPQVCTLPPSRDELTKNQVSLSCAVKGFYPSDIAVEWESNGQPENNYKTTPPVLDSDGSFFLVSKLTVDKSRWQQGNVFSCSVMHEALHNRFTQKSLSLSPGK
light 1: B2 light 1
light 2: NIVMTPTPKFLPVSSGDRVTMTCRASQSVDNYVAWYQQKPGQSPKLLIYYASNRYIGVPDRFTGSGSGTDFTFTISSVQVEDLAVYFCQQHYSSPYTFGSGTKLEIKRTVAAPSVFIFPPSDRKLKSGTASVVCLLNNFYPREAKVQWKVDNALQSGNSQESVTEQDSKDSTYSLSSTLTLSKADYEKHKVYACEVTHQGLSSPVTKSFNRGEC
notes: 1+1 CrossMAb Vh-VL: HC1/LC1 form the crossed PD1 arm, HC2/LC2 the TIM3 arm; knobs into holes; also called PD1TIM3-0389 (0357); Bispec AB 0389 (1+1)
B3 was tested, and the Kd (monomeric human Tim3-ECD) was 245 nM, the “EC50 … donors D2 + D6” value [7] was 2.8 nM and the EC50 [4] was 0.13 nM. The binding result [8] was “binds”, the binding result [9] was “binds” and the “EC50 of IFN-gamma secretion in MLR, donors D1 + D3” value [10] was 2 nM. For the same binder, the “EC50 of IFN-gamma secretion in MLR, donors D2 + D4” value [10] was 1.9 nM and the Kd (human PD1-ECD [6]) was 1.3 nM.

B4: Chimeric TIM3-0016 variant (0018) (antibody, human IgG1, V domains shown)
VH: QVTLKESGPGILQPSQTLSLTCSFSGFSLSTSGMSVGWIRQPSGKGLEWLAHIWLNDDVFFNPALKRRLTISKDTSNNQVFLQIASVVTADTATYYCVRANGYLYALDYWGQGISVTVSS
VL: QIVLTQSPAIMSASPGQKVTITCSASSSVNYTQWYQQKLGSSPKLWIYDAFKLAPGVPARFSGSGTGTSYSLTISSMEAEDAASYFCHQWSSYPWTFGGGTKLEIK
notes: also called Chimeric TIM3-0018
With B4 the EC50 [3] was 0.15 nM, the binding result [4] was “no binding” and the “EC50 … donors D2 + D6” value [11] was greater than 274 nM. For the same binder, the “EC50 of IFN-g secretion/release in MLR, donors D1 + D5, with 0.1 µg/ml anti-PD1 mAb” value [12] was 4.2 nM and the “EC50 of IFN-g secretion/release in MLR, donors D2 + D3, with 0.1 µg/ml anti-PD1 mAb” value [12] was 3.1 nM.

B5: chimeric PD1-0103 (antibody, human IgG1, V domains shown)
VH: EVILVESGGGLVKPGGSLKLSCAASGFSFSSYTMSWVRQTPEKRLDWVATISGGGRDIYYPDSVKGRFTISRDNAKNTLYLEMSSLMSEDTALYYCVLLTGRVYFALDSWGQGTSVTVSS
VL: KIVLTQSPASLPVSLGQRATISCRASESVDTSDNSFIHWYQQRPGQSPKLLIYRSSTLESGVPARFSGSGSRTDFTLTIDPVEADDVATYYCQQNYDVPWTFGGGTKLEIK
B5 was tested, and the “EC50 … donors D2 + D6” value [7] was 6.5 nM, the IC50 [13] was 1.35 nM and the binding result [3] was “no binding”. For the same binder, the EC50 [4] was 0.12 nM, the EC50 [14] was 0.2 nM and the “EC50 … donors D2 + D6” value [5] was 7.7 nM. The Kd (human PD1-ECD [15]) was 0.8 nM, the “EC50 … donors D2 + D6” value [16] was 6 nM and the Kd (human PD1-ECD [17]) was 0.8 nM. The koff (human PD1-ECD [17]) was 0.000307 s⁻¹, the kon (human PD1-ECD [17]) was 386000 M⁻¹ s⁻¹ and the binding result [18] was “no binding (tested: about 20 nM)”. For the same binder, the “EC50 of IFN-gamma secretion in MLR, donors D1 + D3” value [10] was 5.7 nM, the “EC50 of IFN-gamma secretion in MLR, donors D2 + D4” value [10] was 5.7 nM and the Kd (human PD1-ECD [19]) was 2 nM.

Source: patent US20190322748A1 (Hoffmann-La Roche, published 2019)
